T1: CTLA4-his (UniProt P16410 36-161, limits assumed)
T1 construct: construct not described; also called Ag CTLA4-his; Antigen CTLA4-his; not shown: his tag
T1 sequence (looked up): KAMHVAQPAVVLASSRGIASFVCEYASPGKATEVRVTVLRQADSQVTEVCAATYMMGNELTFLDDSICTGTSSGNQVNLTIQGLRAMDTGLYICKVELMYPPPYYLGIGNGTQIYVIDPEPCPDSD

B1: Humanized Ab 8 (VH3 + VL2) (antibody, human IgG1, kappa, V domains shown)
VH: QVQLVQSGAEVKKPGASVKVSCKASGYKFTDHFINWVKQAPGQGLEWIGDINPNNGGTNSNQKFEGRVTLTVDTSISTAYMELSRLRSDDTAVYYCARLRREYFYAMDYWGQGTLVTVSS
VL: DIVMTQSPLSLPVTPGEPASISCRSSKSLLHSNGITYLYWYLQKPGQSPQLLIYQMSNLASGVPDRFSSSGSGTDFTLKISRVEAEDVGVYYCAQNLELPLTFGGGTKVEIKR
notes: Humanized IgG1 derived from MAb A4, full length, HEK293
B2: Humanized Ab 1 (VH1 + VL1) (antibody, human IgG1, kappa, V domains shown)
VH: B1 VH with K38R, I48M, L70M, V72R
VL: B1 VL with S69G
notes: as for B1
B3: Humanized Ab 6 (VH2 + VL3) (antibody, human IgG1, kappa)
heavy: not shown
light: DIVMTQSPLSLPVTPGEPASISCRSSKSLLHSNGITYLYWYLQKPGQSPQLLIYQMSNLASGVPDRFSSSGSGTDFTLKISRVEAEDVGVYYCAQNLELPLTFGGGTKLEIKRTVAAPSVFIFPPSDEQLKSGTASVVCLLNNFYPREAKVQWKVDNALQSGNSQESVTEQDSKDSTYSLSSTLTLSKADYEKHKVYACEVTHQGLSSPVTKSFNRGEC
notes: as for B1
B4: Humanized Ab 2 (VH1 + VL2) (antibody, human IgG1, kappa)
heavy: not shown
light: B3 light with L109V
notes: as for B1
B5: Humanized Ab 5 (VH2 + VL2) (antibody, human IgG1, kappa)
heavy: not shown
light: B3 light with L109V
notes: as for B1
B6: Humanized Ab 4 (VH2 + VL1) (antibody, human IgG1, kappa, V domains shown)
VH: B1 VH with K38R, L70M
VL: B1 VL with S69G
notes: as for B1
B7: Humanized Ab 10 (VH4 + VL1) (antibody, human IgG1, kappa, V domains shown)
VH: B1 VH with V20I, V68A
VL: B1 VL with S69G
notes: as for B1
B8: Humanized Ab 7 (VH3 + VL1) (antibody, human IgG1, kappa, V domains shown)
VH: B1 VH
VL: B1 VL with S69G
notes: as for B1
B9: Humanized Ab 3 (VH1 + VL3) (antibody, human IgG1, kappa)
heavy: not shown
light: B3 light
notes: as for B1

Changes are numbered by the printed parent chain.

Data on nine molecules can be found in patent US20200055937A1 (REMD BIOTHERAPEUTICS, published 2020).

The target in the experiment is T1, CTLA4-his. Put plainly: SPR Biacore T200, antibody from supernatant captured by anti-human Fc, CTLA4-his injected. How it is done:
Affinity ranking of the fifteen humanized antibodies was determined using a Surface Plasmon Resonance (SPR) biosensor, Biacore T200 (GE Healthcare). Anti-human Fc gamma specific antibody was immobilized onto the sensor chip using amine coupling method. […] After equilibration, Ag CTLA4-his was injected for 300 seconds (association phase) followed by the injection of running buffer for 600s (dissociation phase). Responses of reference flow cell (flow cell 1) were subtracted from those of humanized antibodies flow cells during each cycle. The surface was regenerated before the injection of other humanized antibodies. The process was repeated until all antibodies are analyzed. The off-rates of humanized antibodies were obtained from fitting the experimental data locally to 1:1 interaction model using the Biacore 8K evaluation software. The antibodies were ranked by their dissociation rate constants (off-rates, kd).
The term Kd denotes the equilibrium constant for the complex coming apart. A lower Kd goes with higher affinity. The term koff denotes the rate constant with which the complex falls apart. Higher therefore signals fast dissociation. As a reminder, the kon is the rate constant with which the complex forms. In turn, B1 showed a Kd of 0.791 nM, a koff of 0.000523 s⁻¹ and a kon of 661000 M⁻¹ s⁻¹.
On the same counts, the results for B2 are 1.2 nM, 0.000338 s⁻¹ and 281000 M⁻¹ s⁻¹.
Take B3: binding was put at a Kd of 1.16 nM, the koff was found to be 0.000347 s⁻¹ and the kon amounted to 300000 M⁻¹ s⁻¹.
On the same counts, the results for B4 are 1 nM, 0.000351 s⁻¹ and 350000 M⁻¹ s⁻¹.
In turn, B5 had a Kd of 1.12 nM, a koff of 0.000345 s⁻¹ and a kon of 309000 M⁻¹ s⁻¹.
B6 yielded a Kd of 0.83 nM, a koff of 0.000611 s⁻¹ and a kon of 736000 M⁻¹ s⁻¹.
B7 registered a Kd of 0.852 nM, a koff of 0.000288 s⁻¹ and a kon of 338000 M⁻¹ s⁻¹.
B8: the Kd worked out at 0.956 nM, the koff was found to be 0.000434 s⁻¹ and the kon was determined as 454000 M⁻¹ s⁻¹.
The molecule B9 had a Kd of 1.17 nM, a dissociation rate constant (koff) of 0.000437 s⁻¹ and a kon of 375000 M⁻¹ s⁻¹.
